Measured values reported in patent US20190038762A1 (Takeda / Millennium, published 2019).

Molecular target: T1, guanylyl cyclase C (GCC), myc-tagged, full-length, expressed on HEK293-GCC#2 cells (UniProt P25092 24-1073, limits assumed)
T1 construct: whole, on cells; also called GCC antigen; GCC-expressing cells
Experiment: indirect immunofluorescence flow cytometry on HEK293-GCC#2 cells
Procedure: HEK293-GCC#2 and vector control cells were grown in standard cell culture medium supplemented with 10% fetal bovine serum (FBS). […] This centrifugation-wash step was repeated once more before cells were re-suspended at a concentration of 5×10⁶ cells/mL in 3% FBS/PBS, and added to the experimental wells of a V-bottom 96-well plate in 100 μL aliquots (˜500,000 cells). The plate was centrifuged for 5 min at 1200 rpm.
Following centrifugation, supernatant was removed from each well and replaced with 50 μL of primary antibody-drug conjugate solution. […] The 96-well dish was covered and incubated at 4° C. (on ice) for 1 hour before solutions were removed from the wells and the cells were washed twice in 100 μL of 3% FBS/PBS (without Ca²⁺ or Mg²⁺).
After completion of the second wash, 50 μL of secondary antibody solution was added to each experimental well, and the covered 96-well plate was placed at 4° C. (on ice) for 1 hour. The plate was then centrifuged, and the supernatant was replaced with 100 μL of 3% FBS/PBS (without Ca²⁺ or Mg²⁺). This centrifugation-wash step was repeated for a total of two cycles. The cells were finally reconstituted in 200 μL of PBS (without Ca²⁺ or Mg²⁺) and loaded onto the BD FACS Canto flow cytometer (BD Biosciences, Franklin Lakes, N.J.). Data were analyzed using FACS II Canto system software and the appropriate filter settings.

T1 sequence (P25092 24-1073 limits assumed): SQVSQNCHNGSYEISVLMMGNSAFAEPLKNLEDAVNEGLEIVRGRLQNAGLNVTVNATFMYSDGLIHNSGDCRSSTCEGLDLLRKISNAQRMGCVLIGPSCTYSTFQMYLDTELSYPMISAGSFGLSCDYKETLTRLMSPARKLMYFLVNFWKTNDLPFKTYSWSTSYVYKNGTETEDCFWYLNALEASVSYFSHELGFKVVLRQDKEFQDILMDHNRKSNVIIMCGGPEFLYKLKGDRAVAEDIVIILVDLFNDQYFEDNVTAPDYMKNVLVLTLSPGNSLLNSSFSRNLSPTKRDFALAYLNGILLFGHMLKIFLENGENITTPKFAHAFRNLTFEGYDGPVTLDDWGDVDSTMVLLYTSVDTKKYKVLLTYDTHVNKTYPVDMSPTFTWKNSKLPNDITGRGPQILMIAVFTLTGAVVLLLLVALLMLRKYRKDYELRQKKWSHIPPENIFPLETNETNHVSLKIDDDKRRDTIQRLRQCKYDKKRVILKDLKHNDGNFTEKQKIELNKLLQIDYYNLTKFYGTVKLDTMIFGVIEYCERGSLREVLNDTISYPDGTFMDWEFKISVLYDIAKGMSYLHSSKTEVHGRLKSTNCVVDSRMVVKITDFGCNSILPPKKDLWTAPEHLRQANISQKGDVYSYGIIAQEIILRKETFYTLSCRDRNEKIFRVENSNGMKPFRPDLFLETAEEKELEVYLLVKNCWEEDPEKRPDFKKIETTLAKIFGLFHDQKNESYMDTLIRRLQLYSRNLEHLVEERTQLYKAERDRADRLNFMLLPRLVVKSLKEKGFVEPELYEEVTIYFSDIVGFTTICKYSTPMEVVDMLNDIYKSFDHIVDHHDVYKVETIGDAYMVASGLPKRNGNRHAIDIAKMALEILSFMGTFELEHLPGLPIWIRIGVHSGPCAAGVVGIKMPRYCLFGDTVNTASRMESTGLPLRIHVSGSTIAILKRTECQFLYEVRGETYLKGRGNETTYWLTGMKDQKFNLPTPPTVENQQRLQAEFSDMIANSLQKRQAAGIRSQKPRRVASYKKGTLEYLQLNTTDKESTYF

B1: 5F9 antibody (anti-GCC human monoclonal antibody 5F9, hIgG1/hKappa) (antibody, V domains shown)
VH: QVQLQQWGAGLLKPSETLSLTCAVFGGSFSGYYWSWIRQPPGKGLEWIGEINHRGNTNDNPSLKSRVTISVDTSKNQFALKLSSVTAADTAVYYCARERGYTYGNFDHWGQGTLVTVSS
VL: EIVMTQSPATLSVSPGERATLSCRASQSVSRNLAWYQQKPGQAPRLLIYGASTRATGIPARFSGSGSGTEFTLTIGSLQSEDFAVYYCQQYKTWPRTFGQGTNVEIKR
notes: The hybridoma antibody was IgG2, kappa; also called hu5F9; Human 5F9 antibody
Affinity: 35 ng/mL
